Test results taken from ChEMBL document CHEMBL1138116, “Synthesis and reactivity with beta-lactamases of a monobactam bearing a retro-amide side chain” (Bioorg Med Chem Lett, 2006).

Columns and labels:
[1] = substrate: O=C(Cc1ccccc1)N[C@H]1CN(S(=O)(=O)O)C1=O; assay: (§1) Binding affinity to class C beta lactamase of Enterobacter cloacae P99
[2] = substrate: O=C(NCc1ccccc1)C1CN(S(=O)(=O)O)C1=O; assay: as §1
[3] = substrate: O=C(Cc1ccccc1)N[C@H]1CN(S(=O)(=O)O)C1=O; assay: (§2) Binding affinity to TEM class A beta lactamase from the TEM2 plasmid; details: Escherichia coli
[4] = substrate: O=C(NCc1ccccc1)C1CN(S(=O)(=O)O)C1=O; assay: as §2; details: Escherichia coli
[5] = substrate: O=C(Cc1ccccc1)N[C@H]1CN(S(=O)(=O)O)C1=O; assay: (§3) Binding affinity to class A beta lactamase of Staphylococcus aureus PC1
[6] = substrate: O=C(NCc1ccccc1)C1CN(S(=O)(=O)O)C1=O; assay: as §3
[7] = substrate: O=C(Cc1ccccc1)N[C@H]1CN(S(=O)(=O)O)C1=O; assay: (§4) Binding affinity to class D beta lactamase OXA1 of Escherichia coli
[8] = substrate: O=C(NCc1ccccc1)C1CN(S(=O)(=O)O)C1=O; assay: as §4

B1: Beta-lactamase class C (Enterobacter cloacae), Q59401 (protein)
chain: MMKKSLCCALLLGISCSALATPVSEKQLAEVVANTVTPLMKAQSVPGMAVAVIYQGKPHYYTFGKADIAANKPVTPQTLFELGSISKTFTGVLGGDAIARGEISLDDPVTRYWPQLTGKQWQGIRMLDLATYTAGGLPLQVPDEVTDNASLLRFYQNWQPQWKPGTTRLYANASIGLFGALAVKPSGMPYEQAMTTRVLKPLKLDHTWINVPKAEEAHYAWGYRDGKAVRAVRVSPGMLDAQAYGVKTNVQDMANWVMANMAPENVADASLKQGIALAQSRYWRIGSMYQGLGWEMLNWPVEANTVVEGSDSKVALAPLPVAEVNPPAPPVKASWVHKTGSTGGFGSYVAFIPEKQIGIVMLANTSYPNPARVEAAYHILEALQ
- Km [1]: 1000 µM
- Km [2]: 75 µM

B2: Beta-lactamase TEM (Escherichia coli), P62593 (protein)
chain: MSIQHFRVALIPFFAAFCLPVFAHPETLVKVKDAEDQLGARVGYIELDLNSGKILESFRPEERFPMMSTFKVLLCGAVLSRVDAGQEQLGRRIHYSQNDLVEYSPVTEKHLTDGMTVRELCSAAITMSDNTAANLLLTTIGGPKELTAFLHNMGDHVTRLDRWEPELNEAIPNDERDTTMPAAMATTLRKLLTGELLTLASRQQLIDWMEADKVAGPLLRSALPAGWFIADKSGAGERGSRGIIAALGPDGKPSRIVVIYTTGSQATMDERNRQIAEIGASLIKHW
- Km [3]: 6.8 mM
- Km [4]: 2500 µM

B3: Beta-lactamase (Staphylococcus aureus), P00807 (protein)
chain: MKKLIFLIVIALVLSACNSNSSHAKELNDLEKKYNAHIGVYALDTKSGKEVKFNSDKRFAYASTSKAINSAILLEQVPYNKLNKKVHINKDDIVAYSPILEKYVGKDITLKALIEASMTYSDNTANNKIIKEIGGIKKVKQRLKELGDKVTNPVRYEIELNYYSPKSKKDTSTPAAFGKTLNKLIANGKLSKENKKFLLDLMLNNKSGDTLIKDGVPKDYKVADKSGQAITYASRNDVAFVYPKGQSEPIVLVIFTNKDNKSDKPNDKLISETAKSVMKEF
- Km [5]: 70 µM
- Km [6]: 300 µM

B4: Beta-lactamase OXA-1 (Escherichia coli), P13661 (protein)
chain: MKNTIHINFAIFLIIANIIYSSASASTDISTVASPLFEGTEGCFLLYDASTNAEIAQFNKAKCATQMAPDSTFKIALSLMAFDAEIIDQKTIFKWDKTPKGMEIWNSNHTPKTWMQFSVVWVSQEITQKIGLNKIKNYLKDFDYGNQDFSGDKERNNGLTEAWLESSLKISPEEQIQFLRKIINHNLPVKNSAIENTIENMYLQDLDNSTKLYGKTGAGFTANRTLQNGWFEGFIISKSGHKYVFVSALTGNLGSNLTSSIKAKKNAITILNTLNL
- Km [7]: 29 µM
- Km [8]: 2300 µM
